Reference: the supplement of paper PMC9170038

Tested on: MS2 coat protein
Assay: apparent KD of MS2 coat protein; designed switch direction (-1 OFF switch, 1 ON switch): 1; higher = weaker reporter binding
How it was run: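 Stalled E. coli RNA polymerase transcribed designed RNA switches on Illumina chips, which were then titrated with SNAP-549-labelled MS2 coat protein, doubling from 0.7 or 1.5 nM to 3 µM. Steps lasted from 0.8–1.5 h at the lowest concentration to 10–20 min at the highest. The apparent KD is each design's median over clusters of curve-fitted normalised fluorescence.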

[1] = input ligand: microRNA oligo, concentration not stated
[2] = Eterna round: R95, input ligand: microRNA oligo, concentration not stated
[3] = Eterna round: R95, input ligand: FMN 200 uM
[4] = Eterna round: R95, input ligand: none

Sequence	apparent KD of MS2 coat protein (input ligand: FMN 200 uM) [nM]	apparent KD of MS2 coat protein [1] [nM]	apparent KD of MS2 coat protein (input ligand: none) [nM]	apparent KD of MS2 coat protein [2] [nM]	apparent KD of MS2 coat protein [3] [nM]	apparent KD of MS2 coat protein [4] [nM]
UGGUACAUGGGAGGAUAUCAUGUAGAAACAUGAGGAUCACCCAUGUAGAUGGCCGGUAACCGGAAUGAGAAGGCCCAUGUACCU [JL SSNG1 3.63] (Eterna round: R96, puzzle: Same State NG 2)	22.7	18.9	30.6	–	–	–
UGGUACAUGGGAGGAUAUCAUGUAGACACAUGAGGAUCACCCAUGUCGAUGGAGACAUCGGAGAUUGAGAAGGCCCAUGUACCU [JL SSNG1 3.55] (Eterna round: R96, puzzle: Same State NG 2)	18.6	291	647	–	–	–
AAUUAAGAUUGAGGAUAUCACGUCGAAUAGACGUGAGAAGGCGAUCAUAACAUGAGGAUCACCCAUGUAUUACAUGAAUUAAUU [SSNG1/5-B1] (Eterna round: R96, puzzle: Same State NG 1)	30.2	31.9	32.3	–	–	–
GCAGGACAUGAGGAUCACCCAUGUUCAAAAUAUAGAGGAUAUGGAUACGGUAUAUCCGAACCAGAAGGCUACCUGC [SS1 Teenbexe 23] (puzzle: Same State 1)	–	–	–	13.7	–	–
GCAGAACAUGAGGAUCACCCAUGUCUCUAAUAUUGAGGAUAUGGACACGGUAUAUCCGAACCAGAAGGCGAACUGC [SS1 Teenbexe 17] (puzzle: Same State 1)	–	–	–	34	27.5	41.2
GGUGCGAAAUAAGCCUACAUGAGGAUCACCCAUGUAUGUAGGCAGGAUAUCGUAUGCAAAGCAUACGAGAAGGGCUGUCGCACC [Mat - Same State NG 3 - JL Mod - D48] (Eterna round: R96, puzzle: Same State NG 3)	33.2	61	94.6	–	–	–
AUUAUUAAUGCAGGAUAUGAUUAACAUGAGGAUCACCCAUGUGGUGUUGUGAGUAAGGAGAGUGAUCAGAAGGGCAGUUUUUUU [JMF's solution 8] (Eterna round: R96, puzzle: Same State NG 2)	614	227	262	–	–	–
GCAGUACUAGCAGAGGAUAUGUCGAUAACGACAUGAGGAUCACCCAUGUGUACGGAAGUACUCAGACAGAAGGCUGAGUACUGCU [Same State 2 - Hyphema v.2] (puzzle: Same State 2)	–	–	–	30.2	15.2	41.8
AAUAAUCUAUCUGAGGAUAUCAUGAAAUAAACAUGAGGAUCACCCAUGUGCAGGAAAACUGCAUAUGAGAAGGCAGAUAGAUUGA [salish99_ss2_r3_020] (puzzle: Same State 2)	–	–	–	551	43.8	1160
AGUCCAGCCUGAGCUGGACAAAAGCAUGUACAUGAGGAUCACCCAUGUCGUGUACAAGCUUUUUGCUCGUCUUAAUA [Zipper 49 - 4] (puzzle: Sensor for hsa-mir-208a)	–	–	–	13.5	285	311
UUAACAUGAGGAUCACCCAUGUAUAGGGAGUUAACAAUUGGACAGGAUAUUGAAGAUGUAGAUAGCAAGAAGGGUCGGUAGUCU [JR_SSNG3_Sub001] (Eterna round: R96, puzzle: Same State NG 3)	–	30	–	–	–	–
GGUAGGUUACUACCAAUCUACAUGAGGAUCACCCAUGUGUAGGAGGAUAUGGUACCUAUUUGGUACCAGAAGGCCUGAUUAAUU [Fiskers NG3ss - 8] (Eterna round: R96, puzzle: Same State NG 3)	115	80.4	247	–	–	–
GGCAGGUGCAGGCUUGCUUGCACCUGGAGACAUGAGGAUCACCCAUGUUUGGGACAAGCUUUGCUCCUCGUCUUUUC [JL ViennaUCT Isusreraar mod 7] (puzzle: Sensor for hsa-mir-208a)	–	–	–	104	617	766
CGUCCAGCCUGAGCUGGACAAAAGCAUGUACAUGAGGAUCACCCAUGUUCAUGUACAAGCUUUUUGCUCGUCUUAAC [salish99_208a_r3_039] (puzzle: Sensor for hsa-mir-208a)	–	–	–	18.2	660	616
AAAAUAAAUACAGGAUAUAGCCGCCUAAAGCGGCUAGAAGGGUAGAUCGAAAUACAUGAGGAUCACCCAUGUGCACGUAAGUGC [Eresesgeti] (Eterna round: R96, puzzle: Same State NG 1)	775	527	1350	–	–	–
AUUUCUAGCACAGGAUAUCAUGCGAAAAUUGCGUGAGAAGGGUGGACGCUGUCAUUCACGGAAGACAUGAGGAUCACCCAUGUC [SameState NG1 #76] (Eterna round: R96, puzzle: Same State NG 1)	48	53.4	102	–	–	–

Sequence	apparent KD of MS2 coat protein (input ligand: FMN 200 uM) [nM]	apparent KD of MS2 coat protein [1] [nM]	apparent KD of MS2 coat protein (input ligand: none) [nM]	apparent KD of MS2 coat protein [2] [nM]	apparent KD of MS2 coat protein [3] [nM]	apparent KD of MS2 coat protein [4] [nM]
GGAGCUGUUAUAGGAUAUCCCGCGCAUUACGCGGGAGAAGGGUGACGCUCACAUGAGGAUCACCCAUGUGGCGUUCCAAAAUAA [Rate] (Eterna round: R96, puzzle: Same State NG 1)	11.8	8.12	12.4	–	–	–
ACAUGAGACCUAGGAUAUAUUGUACCUACAUGUGACAUGAGGAUCACCCAUGUGGUAAGUAUGACAUAGAAGGAGGAGAUAUGU [Equivalance 93 - Jieux - Same State NG 2] (Eterna round: R96, puzzle: Same State NG 2)	31.5	27.2	54.7	–	–	–
AGCCUGAGUCGAGGAUAUUAUGGAUCAAUUAAUACAUGAGGAUCACCCAUGUAAUUAAUUUAACAUGAGAAGGCGACUCAGGCA [SSNG2/10-A1] (Eterna round: R96, puzzle: Same State NG 2)	7.72	5.43	8.66	–	–	–
UGAACCUUCACAGGAUAUCAUGCGAAAAUUGCGUGAGAAGGGUGGAUGUGGUGUUCAAAGAUGCACAUGAGGAUCACCCAUGUA [SameState NG1 #48] (Eterna round: R96, puzzle: Same State NG 1)	106	166	203	–	–	–
GUAGCAUACCGAGGAUAUUCAUUACAUGAGGAUCACCCAUGUUUAUUAUAGGCCAAAAGGCCUUGGGAGAAGGCGGAAUGCUAC [Xeonanis - 20 Mod12] (Eterna round: R96, puzzle: Same State NG 2)	8.36	8.47	10.7	–	–	–
UACAUACGCGGAGGAUAUGGGCGAGGCACGGAGGUCCGCGCCAAAACAUGAGGAUCACCCAUGUCCCAGAAGGCCGCACAAACU [Oreslaed] (Eterna round: R96, puzzle: Same State NG 2)	13.8	54.4	83.1	–	–	–
AUUAUACAUGAGGAUCACCCAUGUCAACAAAGUCGAGGAUAUGGGCAAAUAAAAUAAGAACCAGAAGGCGAAUAAU [salish99_ss1_r3_069] (Eterna round: R96, puzzle: Same State 1)	69.2	189	293	–	–	–
UCUUAUAAUAAUAUAAUUCAUUUGAUAAAACAUGAGGAUCACCCAUGUCCUACUUUUUUUAAUCAUUUUAACUUUAA [The 7 c's] (puzzle: Sensor for hsa-mir-208a)	–	–	–	62.6	45.3	63.5
AUUUUUAAUGCAGGAUAUGAUUAACAUGAGGAUCACCCAUGUGGUGUUGUGAGUAAGGAGAGUGAUCAGAAGGGCAUAUUUUUU [JMF's solution 80] (Eterna round: R96, puzzle: Same State NG 2)	1170	443	863	–	–	–
UUAUUAAUUACAUGAGGAUCACCCAUGUUUUUUUGUCAGAGACAGGAUAUAGAAGUCUCGUUUUACUAGAAGGGUCAUUAUAUG [JR_SSNG3_Sub014] (Eterna round: R96, puzzle: Same State NG 3)	25.6	19	29.7	–	–	–
UUAUUAAUUACAUGAGGAUCACCCAUGUUAAAUAGUCAGAGACAGGAUAUAGAAGUCUCGUUUUACUAGAAGGGUCAUUAUAUG [JR_SSNG3_Sub013] (Eterna round: R96, puzzle: Same State NG 3)	40.7	27.2	35.8	–	–	–
UAUCCAUAGAUAGGAUAUUAGUGAACAUGAGGAUCACCCAUGUUUUGCUUGGUUUUAAGUUAAUCUGAGAAGGAUCUUGAUGAA [SameState NG2 #5] (Eterna round: R96, puzzle: Same State NG 2)	20.3	14.6	20.4	–	–	–
UAGAGAGGAAGCGAGGAUAUCGUGUGAGGUACAUGAGGAUCACCCAUGUUUGAUGUUGAGAGAGGCGAGAAGGCGCAGGAGAUUA [JR_SS2_Sub084] (puzzle: Same State 2)	–	–	–	26.6	34.1	35.6
AGCUAUCGAAAACGAUAGCAAAGGCAUGUACAUGAGGAUCACCCAUGUCAUGUACAAGCUUUUUGCUCGUCUUAAAA [Zipper 23 - 3] (puzzle: Sensor for hsa-mir-208a)	–	–	–	15.9	799	983
GGUGCCAAUAAAGCCUACAUGAGGAUCACCCAUGUAUGUAGGCAGGAUAUCGUUUGCAAAGCAAACGAGAAGGGCUGAGGCACC [Mat - Same State NG 3 - JL Mod - D52] (Eterna round: R96, puzzle: Same State NG 3)	18.4	39.8	38.8	–	–	–
